The assay has as its target calmodulin, purified (UniProt P0DP23 1-149). In words: pull-down.

B1: GST fusion of α1C aa 1581–1690 with EEDAAA in place of TVGKFY (Mut6) (domain or fragment)
chain: not shown
For B1, the binding result is reported as “binds”.

The record behind these values is PMC1343528 (The Journal of Cell Biology, 2005).
